First the molecules themselves.
B1: KB001 mouse Fab FASEBA VH Y106S (Fab, V domains shown)
VH: EVQLKQSGPGLVAPSQSLSITCTVSGFSLSIYSVHWVRQPPGKGLEWLGMIWGGGSSDYNSALKSRLSISKDNSKSQVFLKMNSLQTDDTAMYYCARNGNFYAMDSWGQGTSVTVSS
VL: QIVLTQSPAIMSASLGERVTMTCTASSSVSSSFLHWYQQKPGSSPQLWIYSTSNLASGVPARFSGSGSGTSYSLTISSMEAEDAATYYCHQYHHSPYIYTFGGGTKLEIK
B2: KB001 mouse Fab FASEBA VH Y106N (Fab, V domains shown)
VH: EVQLKQSGPGLVAPSQSLSITCTVSGFSLSIYSVHWVRQPPGKGLEWLGMIWGGGSSDYNSALKSRLSISKDNSKSQVFLKMNSLQTDDTAMYYCARNGNFYAMDNWGQGTSVTVSS
VL: QIVLTQSPAIMSASLGERVTMTCTASSSVSSSFLHWYQQKPGSSPQLWIYSTSNLASGVPARFSGSGSGTSYSLTISSMEAEDAATYYCHQYHHSPYIYTFGGGTKLEIK
B3: KB001 mouse Fab FASEBA VH L29T (Fab, V domains shown)
VH: EVQLKQSGPGLVAPSQSLSITCTVSGFSTSIYSVHWVRQPPGKGLEWLGMIWGGGSSDYNSALKSRLSISKDNSKSQVFLKMNSLQTDDTAMYYCARNGNFYAMDYWGQGTSVTVSS
VL: QIVLTQSPAIMSASLGERVTMTCTASSSVSSSFLHWYQQKPGSSPQLWIYSTSNLASGVPARFSGSGSGTSYSLTISSMEAEDAATYYCHQYHHSPYIYTFGGGTKLEIK
B4: KB001 mouse Fab FASEBA VH S30T (Fab, V domains shown)
VH: EVQLKQSGPGLVAPSQSLSITCTVSGFSLTIYSVHWVRQPPGKGLEWLGMIWGGGSSDYNSALKSRLSISKDNSKSQVFLKMNSLQTDDTAMYYCARNGNFYAMDYWGQGTSVTVSS
VL: QIVLTQSPAIMSASLGERVTMTCTASSSVSSSFLHWYQQKPGSSPQLWIYSTSNLASGVPARFSGSGSGTSYSLTISSMEAEDAATYYCHQYHHSPYIYTFGGGTKLEIK
B5: KB001 mouse Fab FASEBA VH S28Y (Fab, V domains shown)
VH: EVQLKQSGPGLVAPSQSLSITCTVSGFYLSIYSVHWVRQPPGKGLEWLGMIWGGGSSDYNSALKSRLSISKDNSKSQVFLKMNSLQTDDTAMYYCARNGNFYAMDYWGQGTSVTVSS
VL: QIVLTQSPAIMSASLGERVTMTCTASSSVSSSFLHWYQQKPGSSPQLWIYSTSNLASGVPARFSGSGSGTSYSLTISSMEAEDAATYYCHQYHHSPYIYTFGGGTKLEIK
B6: KB001 mouse Fab FASEBA VH S28A (Fab, V domains shown)
VH: EVQLKQSGPGLVAPSQSLSITCTVSGFALSIYSVHWVRQPPGKGLEWLGMIWGGGSSDYNSALKSRLSISKDNSKSQVFLKMNSLQTDDTAMYYCARNGNFYAMDYWGQGTSVTVSS
VL: QIVLTQSPAIMSASLGERVTMTCTASSSVSSSFLHWYQQKPGSSPQLWIYSTSNLASGVPARFSGSGSGTSYSLTISSMEAEDAATYYCHQYHHSPYIYTFGGGTKLEIK
B7: KB001 mouse Fab FASEBA VH G26D (Fab, V domains shown)
VH: EVQLKQSGPGLVAPSQSLSITCTVSDFSLSIYSVHWVRQPPGKGLEWLGMIWGGGSSDYNSALKSRLSISKDNSKSQVFLKMNSLQTDDTAMYYCARNGNFYAMDYWGQGTSVTVSS
VL: QIVLTQSPAIMSASLGERVTMTCTASSSVSSSFLHWYQQKPGSSPQLWIYSTSNLASGVPARFSGSGSGTSYSLTISSMEAEDAATYYCHQYHHSPYIYTFGGGTKLEIK
B8: KB001 mouse Fab FASEBA VH S30K (Fab, V domains shown)
VH: EVQLKQSGPGLVAPSQSLSITCTVSGFSLKIYSVHWVRQPPGKGLEWLGMIWGGGSSDYNSALKSRLSISKDNSKSQVFLKMNSLQTDDTAMYYCARNGNFYAMDYWGQGTSVTVSS
VL: QIVLTQSPAIMSASLGERVTMTCTASSSVSSSFLHWYQQKPGSSPQLWIYSTSNLASGVPARFSGSGSGTSYSLTISSMEAEDAATYYCHQYHHSPYIYTFGGGTKLEIK
B9: KB001 mouse Fab FASEBA VH S28G (Fab, V domains shown)
VH: EVQLKQSGPGLVAPSQSLSITCTVSGFGLSIYSVHWVRQPPGKGLEWLGMIWGGGSSDYNSALKSRLSISKDNSKSQVFLKMNSLQTDDTAMYYCARNGNFYAMDYWGQGTSVTVSS
VL: QIVLTQSPAIMSASLGERVTMTCTASSSVSSSFLHWYQQKPGSSPQLWIYSTSNLASGVPARFSGSGSGTSYSLTISSMEAEDAATYYCHQYHHSPYIYTFGGGTKLEIK
B10: KB001 mouse Fab FASEBA VH Y106W (Fab, V domains shown)
VH: EVQLKQSGPGLVAPSQSLSITCTVSGFSLSIYSVHWVRQPPGKGLEWLGMIWGGGSSDYNSALKSRLSISKDNSKSQVFLKMNSLQTDDTAMYYCARNGNFYAMDWWGQGTSVTVSS
VL: QIVLTQSPAIMSASLGERVTMTCTASSSVSSSFLHWYQQKPGSSPQLWIYSTSNLASGVPARFSGSGSGTSYSLTISSMEAEDAATYYCHQYHHSPYIYTFGGGTKLEIK
B11: KB001 mouse Fab FASEBA VH L29P (Fab, V domains shown)
VH: EVQLKQSGPGLVAPSQSLSITCTVSGFSPSIYSVHWVRQPPGKGLEWLGMIWGGGSSDYNSALKSRLSISKDNSKSQVFLKMNSLQTDDTAMYYCARNGNFYAMDYWGQGTSVTVSS
VL: QIVLTQSPAIMSASLGERVTMTCTASSSVSSSFLHWYQQKPGSSPQLWIYSTSNLASGVPARFSGSGSGTSYSLTISSMEAEDAATYYCHQYHHSPYIYTFGGGTKLEIK
B12: KB001 mouse Fab FASEBA VH S30Q (Fab, V domains shown)
VH: EVQLKQSGPGLVAPSQSLSITCTVSGFSLQIYSVHWVRQPPGKGLEWLGMIWGGGSSDYNSALKSRLSISKDNSKSQVFLKMNSLQTDDTAMYYCARNGNFYAMDYWGQGTSVTVSS
VL: QIVLTQSPAIMSASLGERVTMTCTASSSVSSSFLHWYQQKPGSSPQLWIYSTSNLASGVPARFSGSGSGTSYSLTISSMEAEDAATYYCHQYHHSPYIYTFGGGTKLEIK
B13: KB001 mouse Fab FASEBA VH S28H (Fab, V domains shown)
VH: EVQLKQSGPGLVAPSQSLSITCTVSGFHLSIYSVHWVRQPPGKGLEWLGMIWGGGSSDYNSALKSRLSISKDNSKSQVFLKMNSLQTDDTAMYYCARNGNFYAMDYWGQGTSVTVSS
VL: QIVLTQSPAIMSASLGERVTMTCTASSSVSSSFLHWYQQKPGSSPQLWIYSTSNLASGVPARFSGSGSGTSYSLTISSMEAEDAATYYCHQYHHSPYIYTFGGGTKLEIK
B14: KB001 mouse Fab FASEBA VH S28N (Fab, V domains shown)
VH: EVQLKQSGPGLVAPSQSLSITCTVSGFNLSIYSVHWVRQPPGKGLEWLGMIWGGGSSDYNSALKSRLSISKDNSKSQVFLKMNSLQTDDTAMYYCARNGNFYAMDYWGQGTSVTVSS
VL: QIVLTQSPAIMSASLGERVTMTCTASSSVSSSFLHWYQQKPGSSPQLWIYSTSNLASGVPARFSGSGSGTSYSLTISSMEAEDAATYYCHQYHHSPYIYTFGGGTKLEIK
B15: KB001 mouse Fab FASEBA VH S28L (Fab, V domains shown)
VH: EVQLKQSGPGLVAPSQSLSITCTVSGFLLSIYSVHWVRQPPGKGLEWLGMIWGGGSSDYNSALKSRLSISKDNSKSQVFLKMNSLQTDDTAMYYCARNGNFYAMDYWGQGTSVTVSS
VL: QIVLTQSPAIMSASLGERVTMTCTASSSVSSSFLHWYQQKPGSSPQLWIYSTSNLASGVPARFSGSGSGTSYSLTISSMEAEDAATYYCHQYHHSPYIYTFGGGTKLEIK
B16: KB001 mouse Fab FASEBA VH S30R (Fab, V domains shown)
VH: EVQLKQSGPGLVAPSQSLSITCTVSGFSLRIYSVHWVRQPPGKGLEWLGMIWGGGSSDYNSALKSRLSISKDNSKSQVFLKMNSLQTDDTAMYYCARNGNFYAMDYWGQGTSVTVSS
VL: QIVLTQSPAIMSASLGERVTMTCTASSSVSSSFLHWYQQKPGSSPQLWIYSTSNLASGVPARFSGSGSGTSYSLTISSMEAEDAATYYCHQYHHSPYIYTFGGGTKLEIK
B17: KB001 mouse Fab FASEBA VH L29V (Fab, V domains shown)
VH: EVQLKQSGPGLVAPSQSLSITCTVSGFSVSIYSVHWVRQPPGKGLEWLGMIWGGGSSDYNSALKSRLSISKDNSKSQVFLKMNSLQTDDTAMYYCARNGNFYAMDYWGQGTSVTVSS
VL: QIVLTQSPAIMSASLGERVTMTCTASSSVSSSFLHWYQQKPGSSPQLWIYSTSNLASGVPARFSGSGSGTSYSLTISSMEAEDAATYYCHQYHHSPYIYTFGGGTKLEIK
B18: KB001 mouse Fab FASEBA VH G26N (Fab, V domains shown)
VH: EVQLKQSGPGLVAPSQSLSITCTVSNFSLSIYSVHWVRQPPGKGLEWLGMIWGGGSSDYNSALKSRLSISKDNSKSQVFLKMNSLQTDDTAMYYCARNGNFYAMDYWGQGTSVTVSS
VL: QIVLTQSPAIMSASLGERVTMTCTASSSVSSSFLHWYQQKPGSSPQLWIYSTSNLASGVPARFSGSGSGTSYSLTISSMEAEDAATYYCHQYHHSPYIYTFGGGTKLEIK
B19: KB001 mouse Fab FASEBA VH S28R (Fab, V domains shown)
VH: EVQLKQSGPGLVAPSQSLSITCTVSGFRLSIYSVHWVRQPPGKGLEWLGMIWGGGSSDYNSALKSRLSISKDNSKSQVFLKMNSLQTDDTAMYYCARNGNFYAMDYWGQGTSVTVSS
VL: QIVLTQSPAIMSASLGERVTMTCTASSSVSSSFLHWYQQKPGSSPQLWIYSTSNLASGVPARFSGSGSGTSYSLTISSMEAEDAATYYCHQYHHSPYIYTFGGGTKLEIK

Values joined by “and” are separate entries in the source; they are usually repeats but may differ in a detail not shown here. Equal values may be shown once.

In the test the target is HRgpA-6H (Porphyromonas gingivalis) (UniProt P28784). The experiment in a line: ELISA on coated HRgpA-6H.
Sequence of UniProt P28784 (P28784 228-991 limits assumed): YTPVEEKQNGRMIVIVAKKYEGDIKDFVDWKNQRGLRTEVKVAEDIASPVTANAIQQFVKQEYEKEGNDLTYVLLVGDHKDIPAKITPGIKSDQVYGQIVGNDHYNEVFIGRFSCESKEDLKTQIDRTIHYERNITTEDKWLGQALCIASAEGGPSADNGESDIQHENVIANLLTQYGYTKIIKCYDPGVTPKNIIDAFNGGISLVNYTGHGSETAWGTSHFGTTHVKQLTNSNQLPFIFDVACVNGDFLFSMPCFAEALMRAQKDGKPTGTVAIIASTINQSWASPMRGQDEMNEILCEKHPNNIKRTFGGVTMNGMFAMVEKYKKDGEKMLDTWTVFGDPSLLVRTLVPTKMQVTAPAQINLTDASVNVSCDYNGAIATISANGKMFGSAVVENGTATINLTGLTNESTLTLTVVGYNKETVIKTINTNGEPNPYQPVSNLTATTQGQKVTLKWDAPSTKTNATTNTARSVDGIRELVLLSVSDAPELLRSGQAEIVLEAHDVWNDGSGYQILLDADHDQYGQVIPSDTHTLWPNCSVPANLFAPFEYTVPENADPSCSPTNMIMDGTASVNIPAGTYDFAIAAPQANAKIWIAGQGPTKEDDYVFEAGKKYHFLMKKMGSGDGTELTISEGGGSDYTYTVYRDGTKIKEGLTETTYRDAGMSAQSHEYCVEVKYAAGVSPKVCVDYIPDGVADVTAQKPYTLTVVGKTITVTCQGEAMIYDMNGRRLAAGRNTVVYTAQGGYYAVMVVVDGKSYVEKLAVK
For B1, the OD450nm is 0.852 and 0.849; the Ratio OD(Variant)/OD(WT) is 1.11 and 1.1.

For B2, the OD450nm was 0.792 and the Ratio OD(Variant)/OD(WT) was determined as 1.03.

For the molecule B3, the OD450nm was 0.502 and 0.512 and 0.501; the Ratio OD(Variant)/OD(WT) is 0.93 and 0.948 and 0.928.

Turning to B4, the OD450nm was 0.457 and the Ratio OD(Variant)/OD(WT) was 0.906.

In the case of B5, the OD450nm is 0.437 and the Ratio OD(Variant)/OD(WT) stood at 0.809.

Take B6: the OD450nm was 0.488 and the Ratio OD(Variant)/OD(WT) was determined as 0.904.

On to B7, for which the OD450nm was 0.47 and 0.481; the Ratio OD(Variant)/OD(WT) is 0.925 and 0.947.

Regarding B8, the OD450nm was 0.46 and 0.467 and 0.493; the Ratio OD(Variant)/OD(WT) was 0.912 and 0.926 and 0.977.

B9: the OD450nm was 0.468 and 0.486; the Ratio OD(Variant)/OD(WT) was 0.867 and 0.9.

Consider B10, for which the OD450nm is 0.791 and 0.809 and 0.82; the Ratio OD(Variant)/OD(WT) is 1.03 and 1.05 and 1.07.

With B11, the OD450nm is 0.468 and the Ratio OD(Variant)/OD(WT) came out at 0.867.

As to B12, the OD450nm is 0.47 and 0.483; the Ratio OD(Variant)/OD(WT) is 0.932 and 0.957.

As to B13, the OD450nm was 0.511 and 0.526; the Ratio OD(Variant)/OD(WT) is 0.946 and 0.974.

As to B14, the OD450nm was 0.53 and the Ratio OD(Variant)/OD(WT) stood at 0.981.

For the molecule B15, the OD450nm is 0.435 and 0.468; the Ratio OD(Variant)/OD(WT) was 0.806 and 0.867.

Consider B16, for which the OD450nm worked out at 0.481 and the Ratio OD(Variant)/OD(WT) is 0.953.

Regarding B17, the OD450nm is 0.446 and the Ratio OD(Variant)/OD(WT) was 0.826.

In the case of B18, the OD450nm was determined as 0.445 and the Ratio OD(Variant)/OD(WT) came to 0.876.

Regarding B19, the OD450nm came out at 0.458 and the Ratio OD(Variant)/OD(WT) came to 0.848.

Values taken from US20230365662A1.
